From the supplement of paper PMC12042874 come the findings set out here.

A short description of this series: amyloid nucleation score (Sup35N fusion, yeast selection) (log enrichment); library NNK1; higher = more nucleation; inactive = no reads after selection. Put shortly:
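The nucleation score is the log enrichment of output over input reads, calculated with DiMSum and centred on the mode score of non-aggregating sequences. Sequences with under 100 input reads were excluded. Reads came from Illumina sequencing of plasmid inserts from psi-negative yeast expressing Sup35N fused to peptides of 20 random codons, induced 24 hours with 100 μM copper sulfate and grown 7 days at 30°C without adenine and uracil.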

± gives the uncertainty stated by the source.

Regarding TRFLLLSLRDGSEQV, the amyloid nucleation score was 0.577 ± 0.73.
Then HDSTGHGEYVVGPEPFFPCA, with 0.024 ± 0.4; and ILGVSMPPFYSV, with -0.532 ± 0.84.
In turn, RSQSCLVYYWTRFRPVYRFA displayed an amyloid nucleation score of 0.671 ± 0.29.
Then NKGKIESMCSSAH, with 4.7 ± 0.099; and FTLHVSFRGSDDIKSVFYCS, with 3.29 ± 0.11.
Then GYASAVVHHVGWNPTVGSLM, with -0.115 ± 0.42; and KLARTMGYTGTSMVACFCVV, with “inactive”.
Then YNPGG, with -0.248 ± 0.26; and GMSDRQWYMTRTYCLSGPAV, with 0.134 ± 0.23; and LLRVLFFCFSMRCRVGISVA, with 0.86 ± 0.69.
As for TNLMSFY, the amyloid nucleation score was -0.721 ± 1.1.
Then GSPLWLVVPVPGEHVSSLSL, with -0.047 ± 0.36; and FSVRNSSVILEHGVWLNCQG, with 0.03 ± 0.97; and LKFMSPSLSTIDRDIK, with 0.156 ± 0.27.
Consider MFLCNVIYCFFLTYIWLTFF, for which the amyloid nucleation score is 5.33 ± 0.11.
As for PFTHHHKCLVHRLLCRLQHE, the amyloid nucleation score came out at 0.616 ± 0.79.
Then ALKFPMWDSVEYGDCVGSLI, with “inactive”.
Then VNLHWGSDEAVSIARDIYTW, with 0.533 ± 0.29; and NMRTNQDKSCGCCQLPVQAG, with -0.119 ± 1.2.
Then QHHLIGMVRSIGEKMLAKNQ, with 0.094 ± 0.34; and TVRVVDLGQVVGSGVMASMP, with 1.23 ± 0.17.
In the case of RYCCHMSRSTYNIICCRWTN, the amyloid nucleation score result was “inactive”.
Then YRVLELFYFV, with “inactive”.
On to GFNLFCATESYYFFSLMVMG, for which the amyloid nucleation score was -0.13 ± 0.25.
With SVTRHALSNRSNGKIADCC, the amyloid nucleation score is -0.306 ± 0.56.
Then RLSQLVLVVWTAQGC, with -0.006 ± 0.63.
Then SCMTPMYRCSILLLA, with -0.306 ± 0.42.
Then IYMMECEVL, with -0.157 ± 0.42; and GICLKMYYVSACWESNVDTI, with 1.88 ± 0.18.
EDMWNFDRSHGLWYEGTSAM returned an amyloid nucleation score of 0.72 ± 0.69.
Then ANCFPLCRKNLGRSGVNNVR, with -0.452 ± 0.74; and VFASVRLSCMEGGTLVG, with 0.241 ± 0.33.
Then VRKISIFFMNSWVWLSSRFH, with 0.069 ± 0.49; and REPACYSKVTLADKYRLVSE, with 1.26 ± 0.74.
Then WIHACK, with 0.778 ± 0.45; and MDACCMFNVWLVSECGFRVH, with 5.81 ± 0.064.
The substance SFLNMGCRTVYRC yielded an amyloid nucleation score of 0.331 ± 0.61.
Then YVHLYDDCTIGSTRAEGRGY, with 0.777 ± 1.2; and LPEEDG, with “inactive”; and SNGMRRLTKVDEHSL, with 0.933 ± 0.54.
On to RPNLDWFLRLGFSYKCDDRR, for which the amyloid nucleation score was found to be 4.56 ± 0.13.
Then HNWSCQVHRDINLDRGAKES, with 1.79 ± 0.4; and FYSFTGGAVGLGLC, with 1.11 ± 0.49; and RSFIVCSRNRVGLTNFRCLE, with 0.364 ± 0.84.
Then NFPVPLRNDLKLAFMQNLNS, with -0.531 ± 0.3; and NYSSINLWPCVMLNFRYL, with “inactive”.
Then YMAFYPCWVHHKMIEKLCRC, with -0.076 ± 0.71.
Regarding IGPGLSSR, the amyloid nucleation score is -0.521 ± 0.63.
With LMWWGMNDSR, the amyloid nucleation score is -0.025 ± 0.28.
Then VAGGDHAAHWKLAVKNPPPS, with 0.1 ± 0.56; and RDEVGIVHRMSEPKRYGGIK, with -1.11 ± 1.5; and WYEVRYMLTQSYRVHMLFLI, with -0.322 ± 1.7.
Then TFSMSQNWVLNCAYLVIGYH, with 4 ± 0.14.
Then SNRLLGVEAGVGCEIVKYNR, with -0.301 ± 0.38; and SADSGSQSEEQSKVMRMVYG, with -1.64 ± 0.83.
LIHLMRRNAAKTPGAQRDN came in with an amyloid nucleation score of 0.947 ± 0.7.
Then SVYTNVLDTTNQGTKQNGPR, with 1.01 ± 0.47; and FGSQVFTDGHMCMQSGGTWC, with 0.223 ± 0.34.
Then IWLDCIGRYSGVYRHVINDV, with -0.863 ± 0.37; and QAKPLMLNV, with -0.96 ± 1.9; and VYVIIWSIILGRTVAGWMYY, with “inactive”.
For the substance CMVMLGSEQKFYMVVRPLKI, the amyloid nucleation score is -0.085 ± 0.41.
Then FGNSCSADSNRYQIKYTMIK, with 0.155 ± 0.45.
For NLTCSLMVCRWFPIPVL, the amyloid nucleation score turned out to be 0.171 ± 0.38.
Then SLQINMTSSICLVST, with 3.35 ± 0.07.
Then DWAGMCFANSIHMDMLDRVL, with 0.336 ± 0.4; and SWDPNVSFALL, with 2.93 ± 0.25.
Then IHHKD, with -0.616 ± 0.24.
LSWSILDGFGGMRCCNINAL registered an amyloid nucleation score of 7.155 ± 0.058.
NLEAIRQMQEKIMRRTWLLY: the amyloid nucleation score was determined as 3.03 ± 0.13.
Then WDWVYGKFLR, with 0.736 ± 0.26; and SQRNLHTTYTYVAYRDYAER, with 0.957 ± 0.29.
With AYFMDASFNVFIDISFGGGL, the amyloid nucleation score was 8.115 ± 0.046.
Consider NMKRQRAHPMFS, for which the amyloid nucleation score is -0.707 ± 0.45.
Then SFGVTFHWN, with 2.36 ± 0.28; and EGMFFRGSLSK, with 3.31 ± 0.16.
Then DMCNLTRLPLVYFM, with -0.037 ± 1.7; and TRVYIYRTGIWFYLTSNSFT, with 0.577 ± 0.43; and SLTAVISTKVL, with -0.663 ± 1.7.
Then SNSLLQGVTIWPNYPLCGNL, with 0.464 ± 0.53; and DHGGVVPSNPGYNMARSLRF, with 0.465 ± 0.46.
Consider CLYVTPYMLFYLLVSNGTEC, for which the amyloid nucleation score is -1 ± 0.35.
Then VTRFRYECRSGHRKHPGGMD, with “inactive”.
Turning to QELPFRRSYNLSNCSDNWHS, the amyloid nucleation score result was “inactive”.
Then AVYGAECDCAWFTPYSVVAD, with 0.19 ± 0.36; and LLTMFLFNGSKYFLH, with 2.3 ± 0.2; and TVYSMPKVTKTYGGFPAKSH, with 0.312 ± 0.34.
Then FQVVFGYSFMNMATISCVYE, with 5.03 ± 0.054; and RNKNFPSKGDLNQGGRNNIK, with 0.877 ± 0.4.
Then TQVSVFQ, with -1.3 ± 0.83; and RFLIGWFFSFLGCFLKRDSW, with -0.571 ± 1.6.
For the substance SAIYRRWAHRAQSAWQVESR, the amyloid nucleation score was 1.94 ± 0.7.
Then GFSSVPEGDSINPR, with -0.09 ± 0.54; and IGYCKWGSDYGCESAT, with 1.07 ± 0.93; and FVMHSSSM, with -0.34 ± 0.53.
Substance FFIRIVCLWG gave an amyloid nucleation score of 0.659 ± 0.42.
As to CCTDIISQRIVGYLMVVC, the amyloid nucleation score was -0.755 ± 0.68.
Then CYASKMFWVVF, with 2.06 ± 0.27.
Then TISAI, with 0.142 ± 0.92.
Then VKIKEKFKA, with -0.189 ± 0.42.
With RNIRIR, the amyloid nucleation score was -0.534 ± 0.25.
For the substance NCFIKDAMVMSSRMYSGNMI, the amyloid nucleation score entry was “inactive”.
Then DEWLDPEASERRRGPGDWAL, with 0.55 ± 0.74; and LVCVFAWLFP, with 7.41 ± 0.075.
SNRFVPSNSSKVGSNVIDAK returned an amyloid nucleation score of 0.386 ± 0.36.
Then RNLIGLV, with 0.318 ± 0.68; and VSCCNSQTSQLMDFGNKVSP, with 0.349 ± 0.25.
Then DGDSLGCYWDASLARQCFGR, with -0.086 ± 0.29.
Then SYGWCCTNYNSFVWTYPLTK, with 5.79 ± 0.06; and VLAVLVFSGCGGVRGTSNLT, with 1.54 ± 0.14; and GLSAEYFHFPVKRAVSMTLV, with -0.049 ± 0.6.
Substance CWVETLTICACLTFTFFFWN yielded an amyloid nucleation score of 2.48 ± 0.14.
Then CQYRTTYSASFLNRS, with “inactive”; and SWRFDCYDRTWYNMYLEHLS, with 0.232 ± 0.23; and HNVQGRWFFRAHWMSYKHTI, with 0.249 ± 0.62.
Then FASVTTIFFPSPLFFDIRWD, with 1.09 ± 0.79; and MYTSDHNSGVASMCIVVGFF, with 3.76 ± 0.08; and LGGAWLSNEDMVGYKNLH, with 1.44 ± 0.41.
Then MLRTSARSQRGNRGLAKMGF, with -1.87 ± 2.7.
Consider IVVFQ, for which the amyloid nucleation score is -0.887 ± 1.8.
Then TWYILMTRGILGTAATHIRL, with -0.234 ± 0.91; and VNLGVRAGGLCRHAEKGDMT, with -0.364 ± 0.53; and RLFTYYTVRNPYVADKFYNR, with 5.174 ± 0.051.
Then SDYMLNFCYSGLIVRMVFAA, with -0.508 ± 0.98.
Then SVFRSSVCLLANDGVFSMNV, with 0.355 ± 0.39; and LSVGLKVDDEDQRLTYFVTI, with -0.614 ± 0.62.
GWTCYLSVGRIRF: the amyloid nucleation score stood at 1.94 ± 0.11.
On to CGLERTCRRGPSELTCTLYE, for which the amyloid nucleation score is -0.201 ± 0.56.
Then WFWIMIFRHCNVIL, with 0.404 ± 0.5.
Then KHLYVR, with -0.752 ± 0.56; and YTIEYTSITVIVCGILYNT, with 6.932 ± 0.05; and PGRSTHDIRSGPAEYTDSVC, with 0.487 ± 0.63.
Consider LDHLVNDTVEILQYGAPSIH, for which the amyloid nucleation score was 0.733 ± 0.88.
Regarding DFMALI, the amyloid nucleation score was -0.013 ± 0.25.
Then GCIGAQRLNCLWSTRRYLVY, with 5.42 ± 0.06.
In the case of CQIFGNFWWKCIVGCRQIRF, the amyloid nucleation score result is “inactive”.
Then HNGDCMITACNTGVLAGYIS, with 1.88 ± 0.26.
As to GYEEFGVGRTSVPMETARLK, the amyloid nucleation score is -0.406 ± 0.44.
